# Results reported in the DeepSol protein solubility set.
# Assay: soluble on expression in E. coli; label from the status in PepcDB or PDB records
row,Sequence,soluble on expression in E. coli
1,SNAMNILIIGNGGREHALGWKAAQSPLADKIYVAPGNAGTALEPTLENVDIAATDIAGLLAFAQSHDIGLTIVGPEAPLVIGVVDAFRAAGLAIFGPTQAAAQLEGSKAFTKDFLARHNIPSAEYQNFTDVEAALAYVRQKGAPIVIKADGLAAGKGVIVAMTQEEAETAVNDMLAGNAFGDAGHRIVVEEFLDGEEASFIVMVDGENVLPMATSQDHKRVGDGDTGPNTGGMGAYSPAPVVTDDVHQRVMDQVIWPTVRGMAAEGNIYTGFLYAGLMISADGQPKVIEFNCRFGDPETQPIMLRMRSDLVELCLAGTQGKLNEKTSDWDERPSLGVVLAAGGYPADYRQGDVIHGLPQQEVKDGKVFHAGTKLNGNHEVVTNGGRVLCVTALGETVAQAQQYAYQLAEGIQWEGVFCRKDIGYRAIARGK,soluble
2,SNAMNLNQLDIIVSNVPQVCADLEHILDKKADYANDGFAQFTIGSHCLMLSQNHLVPLENFQSGIIIHIEVEDVDQNYKRLNELGIKVLHGPTVTDWGTESLLVQGPAGLVLDFYRMK,soluble
3,SNAMTGTLLSFGHGYTARVLSRALAPQGWRIIGTSRNPDQMEAIRASGAEPLLWPGEEPSLDGVTHLLISTAPDSGGDPVLAALGDQIAARAAQFRWVGYLSTTAVYGDHDGAWVDETTPLTPTAARGRWRVMAEQQWQAVPNLPLHVFRLAGIYGPGRGPFSKLGKGGIRRIIKPGQVFSRIHVEDIAQVLAASMARPDPGAVYNVCDDEPVPPQDVIAYAAELQGLPLPPAVDFDKADLTPMARSFYSENKRVRNDRIKEELGVRLKYPNYRVGLEALQADAET,soluble
4,SNFLEIDIFNPQTVGVGRARFTTYEVRMRTNLPIFKLKESCVRRRYSDFEWLKNELERDSKIVVPPLPGKALKRQLPFRGDEGIFEESFIEERRQGLEQFINKIAGHPLAQNERCLHMFLQEEAIDRNYVPGK,soluble
5,SNIEALADKVRTYLEAGQIDGFVRTLRARPEAGGKVPVFVFHPAGGSTVVYEPLLGRLPADTPMYGFERVEGSIEERAQQYVPKLIEMQGDGPYVLVGWSLGGVLAYACAIGLRRLGKDVRFVGLIDAVRAGEEIPQTKEEIRKRWDRYAAFAEKTFNVTIPAIPYEQLEELDDEGQVRFVLDAVSQSGVQIPAGIIEHQRTSYLDNRAIDTAQIQPYDGHVTLYMADRYHDDAIMFEPRYAVRQPDGGWGEYVSDLEVVPIGGEHIQAIDEPIIAKVGEHMSRA,soluble
6,SNILEKVVLKVLEDQQNIRLIRELLQTLYTSLCTLVQRVGKSVLVGNINMWVYRMETILHWQQQLNNIQITRPAFKGLTFTDLPLCLQLNIMQRLSDGRDLVSLGQAAPDLHVLSEDRLLWKKLCQYHFSERQIRKRLILSDKGQLDWKKMYFKLVRCYPRKEQYGDTLQLRKHCHILSWKGTDHPCTANNPESCSVSLSPQDFINLFKF,not soluble
7,SNPLCSRCNRVVYPTEKVNCLDKYWHKGCFSCEVCKMTLNMKNYKGFEKRPYCNAHYPKTSFTSVADTPENLRLKQQSKMQSQVLYKEEFEKNKGKGFSVVADTPELQRIKKTQDQISNIKYHEDFEKSRSGGDTPLPLTPQLNTPPAYPSSAASQNYHYEPEPVRPAAAAPPPSSGKRYRAVYDYTAADEDEVSFMDGDMIVDVQQIDEGWMYGRVERTGQQGMLPANYVEAM,soluble
8,SNSANAADSGTLNYEVYKYNTNDTSIANDYFNKPAKYIKKNGKLYVQITVNHSHWITGMSIEGHKENIISKNTAKDERTSEFEVSKLNGKIDGKIDVYIDEKVNGKPFKYDHHYNITYKFNGPTDVAGANAP,not soluble
9,SPEALRIGYQKGSIGMVLAKSHQLLEKRYPESKISWVEFPAGPQMLEALNVGSIDLGSTGDIPPIFAQAAGADLVYVGVEPPKPKAEVILVAENSPIKTVADLKGHKVAFQKGSSSHNLLLRALRQAGLKFTDIQPTYLTPADARAAFQQGNVDAWAIWDPYYSAALLQGGVRVLKDGTDLNQTGSFYLAARPYAEKNGAFIQGVLATFSEADALTRSQREQSIALLAKTMGLPAPVIASYLDHRPPTTIKPVNAEVAALQQQTADLFYENRLVPKKVDIRQRIWQPTQLEGKQLEFRVPGNENLYFQ,soluble
10,SPEWPPCLSVAPALVITMAAGKGAPLSPSAENRWRLSEPELGRGCKPVLLEKTNRLGPEAAVGRAGRDVGSAELALLVAPGKPRPGKPLPPKTRGEQRQSAFTELPRMKDRQVDAQAQEREHDDPTGQPGAPQLTQNIPRGPAGSKVFSVWPSGARSEQRSAFSKPTKRPAERPELTSVFPAGESADALGELSGLLNTTDLACWGRLSTPKLLVGDLWNLQALPQNAPLCSTFLGAPTLWLEHTQAQVPPPSSSSTTSWALLPPTLTSLGLSTQNWCAKCNLSFRLTSDLVFHMRSHHKKEHAGPDPHSQKRREEALACPVCQEHFRERHHLSRHMTSHS,soluble
11,SPGRSSSNSGSTGFISFSGVESALSSLKNFQACINSGMDTASSVALDLVESQTEVSSEYSMDKAMVEFATLDRQLNHYVKAVQSTINHVKEERPEKIPDLKLLVEKKFLALQSKNSDADFQNNEKFVQFKQQLKELKKQCGLQADREADGTEGVDEDIIVTQSQTNFTCPITKEEMKKPVKNKVCGHTYEEDAIVRMIESRQKRKKKAYCPQIGCSHTDIRKSDLIQDEALRRAIENHNKKRHRHSE,soluble
12,SPKRETKKIKPSQEVIKEGPFLVAIHLKGIYMSNYTNSPCAACKFLRRKCTSDCVFAPYFPPEEPTKFANVHRIFGASNVSKILHEVAPHQREDAVNSLAYEAEARLKDPVYGCVGAISVLQRQVLRLQRELEETNADLMRYAGCLGGETTSAYGGRRG,soluble
13,SPNALDISRTYPTLHVLIQFNHRGLEVRLFRHGQFWAETRADVILRSKTKQVSFLSNGNYPSMDSRAPWNPWKNTYQAVLRAEPCRVTMDIYYKRVRPFRLPLVQKEWPVREENVFGLYRIFNAHYAGYFADLLIHDIETNPAPFMFRPRKQVFQTQGAAVSSMAQTLLPNDLASKAMGSAFTALLDANEDAQKAMKIIKTLSSLSDAWENVKETLNNPEFWKQLLSRCVQLIAGMTIAVMHPDPLTLLCLGTLTAAEITSQTSLCEEIAAKFKTIFITPPPRFPTISLFQQQ,not soluble
14,SPQRKVANNKQNIEYNDDNHVHHMHSHNPPIDCAILLPSKPRFIFQDVTVFNFNVSGNPSDLNTPVVQFNLSFRNPNANIRIYYDTLDVYAFYGNGSQQIIIPTPMPSTYQGHKEDSVWSPYIPVVPYNALYLDDQHHSRDGNMLMLHLDGRISWLLLGN,soluble
15,SPVSPAGSHKQQNFGLNNATQPKKSISFFATMKATSVKGYTGANQSRMAVSKTVLIPPELKTVEKPNPNIKTTQVFDINGTDVTPRPLYHPDPLTGTAKPSKLLTSQEGSLGSEFISSYSLYQNTINPSTLGQFTRSVLGSSTVSKSSVSASESIAEDLEEPSYKRERLTSFTDLQVIRAAPEKIVTKEDLEKNIEIILTETETLRFFDLPTVMVSVESEEAEKVTQRNKNYEVLCRNRLGNDLYVERMMQTFNGAPKNKDVQCDKIIMEDKGIMSTAWDLYDSYNAMELVSLSVKQSVVESSSKANVLPKDQDQRLPGSTTEKNSETSSLMDIENVILAKIHEDEEDHSDAILKSDKFHQDLFFMERVLMENIFQPKLAAYRQLPVLKEPEPEEPEDVLESAKHEEVEEESKKEEEEEIHAEESTIPANLERLWSFSCDLTKGLNVSSLAWNKTNPDLLAVGYGHFGFKEQKRGLACCWSIKNPMVTQTRIRSIFIWLLTKFS,soluble
16,SQAHVVDFELQYREAIDCPCRTFGVDRSIGQYLHILVCIEKIAVYQLHQIGSVLIGFVDTAFDYQRISRIDVGITYNIFEMPLGIIDPILQKQIMLDRLRP,not soluble
17,SQAPHKEHLYKLLVIGDLGVGKTSIIKRYVHQNFSSHYRATIGVDFALKVLHWDPETVVRLQLWDIAGQERFGNMTRVYYREAMGAFIVFDVTRPATFEAVAKWKNDLDSKLSLPNGKPVSVVLLANKCDQGKDVLMNNGLKMDQFCKEHGFVGWFETSAKENINIDEASRCLVKHILANECDLMESIEPDVVKPHLTSTKVASCSGCAKS,soluble
